According to PMC5431086 (Scientific Reports, 2017):
Positions of bridges follow the written chain, without caps; N, C: chain ends. No end group written: not given here.

Legend:
Assay in all cases: enzyme inhibition assay (panel of proteases); cyc-LHSPW tested against a panel of cancer-associated proteases (Fig. 5A); conditions not given
aminopeptidase A = molecular target: T1, aminopeptidase A (UniProt Q07075 1-957)
T1 chain: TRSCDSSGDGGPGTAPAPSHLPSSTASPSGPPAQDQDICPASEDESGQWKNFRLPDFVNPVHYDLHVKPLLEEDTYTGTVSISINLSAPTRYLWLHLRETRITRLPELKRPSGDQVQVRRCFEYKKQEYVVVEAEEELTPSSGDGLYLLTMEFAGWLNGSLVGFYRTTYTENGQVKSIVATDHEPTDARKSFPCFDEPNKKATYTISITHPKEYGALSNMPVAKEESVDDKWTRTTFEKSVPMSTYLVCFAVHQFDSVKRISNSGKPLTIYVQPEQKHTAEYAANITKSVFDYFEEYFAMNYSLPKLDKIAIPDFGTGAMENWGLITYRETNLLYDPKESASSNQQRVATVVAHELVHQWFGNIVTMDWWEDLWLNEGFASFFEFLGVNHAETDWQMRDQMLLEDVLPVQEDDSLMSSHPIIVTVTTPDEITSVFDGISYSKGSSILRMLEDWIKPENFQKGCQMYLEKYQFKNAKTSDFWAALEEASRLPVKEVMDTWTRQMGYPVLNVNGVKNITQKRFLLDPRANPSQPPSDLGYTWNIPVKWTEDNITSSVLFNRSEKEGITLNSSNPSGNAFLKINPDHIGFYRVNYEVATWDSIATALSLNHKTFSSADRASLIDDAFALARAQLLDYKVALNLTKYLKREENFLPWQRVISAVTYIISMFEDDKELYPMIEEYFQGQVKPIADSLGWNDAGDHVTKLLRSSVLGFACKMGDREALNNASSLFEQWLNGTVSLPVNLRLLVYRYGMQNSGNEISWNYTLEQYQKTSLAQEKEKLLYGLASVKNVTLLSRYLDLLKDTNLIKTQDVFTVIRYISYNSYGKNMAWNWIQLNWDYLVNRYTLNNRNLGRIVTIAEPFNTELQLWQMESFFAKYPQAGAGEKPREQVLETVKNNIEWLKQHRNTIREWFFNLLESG

FAP = FAP (UniProt Q12884 1-760)
Chain of FAP (Q12884 26-760): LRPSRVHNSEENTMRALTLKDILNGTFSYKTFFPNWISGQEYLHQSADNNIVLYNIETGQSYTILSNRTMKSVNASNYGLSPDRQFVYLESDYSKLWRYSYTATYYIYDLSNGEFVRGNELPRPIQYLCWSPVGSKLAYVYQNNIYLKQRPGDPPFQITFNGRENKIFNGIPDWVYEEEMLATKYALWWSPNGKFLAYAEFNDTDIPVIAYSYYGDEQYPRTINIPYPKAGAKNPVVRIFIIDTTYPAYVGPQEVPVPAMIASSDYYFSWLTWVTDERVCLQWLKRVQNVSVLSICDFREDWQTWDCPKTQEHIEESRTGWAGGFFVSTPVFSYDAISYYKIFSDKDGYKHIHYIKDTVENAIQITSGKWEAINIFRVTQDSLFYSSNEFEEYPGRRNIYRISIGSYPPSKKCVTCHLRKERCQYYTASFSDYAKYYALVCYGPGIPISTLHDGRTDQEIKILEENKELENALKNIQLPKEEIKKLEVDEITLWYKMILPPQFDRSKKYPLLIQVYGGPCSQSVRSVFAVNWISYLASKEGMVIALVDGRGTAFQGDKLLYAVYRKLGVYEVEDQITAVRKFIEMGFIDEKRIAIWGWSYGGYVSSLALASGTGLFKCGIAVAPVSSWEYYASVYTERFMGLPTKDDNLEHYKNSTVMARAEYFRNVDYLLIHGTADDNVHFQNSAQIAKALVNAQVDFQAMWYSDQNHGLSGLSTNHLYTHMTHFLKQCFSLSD

KLK7 = KLK7 (UniProt P49862 23-253)
Chain of KLK7 (P49862 30-253): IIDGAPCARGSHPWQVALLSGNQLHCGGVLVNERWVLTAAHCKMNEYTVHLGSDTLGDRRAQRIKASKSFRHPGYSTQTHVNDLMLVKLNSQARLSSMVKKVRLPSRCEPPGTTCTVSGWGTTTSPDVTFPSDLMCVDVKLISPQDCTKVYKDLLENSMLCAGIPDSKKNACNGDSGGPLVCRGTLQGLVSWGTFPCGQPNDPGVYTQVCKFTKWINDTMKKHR

trypsin = molecular target: trypsin
PSA = PSA (UniProt P07288 18-261)
Chain of PSA (P07288 25-261): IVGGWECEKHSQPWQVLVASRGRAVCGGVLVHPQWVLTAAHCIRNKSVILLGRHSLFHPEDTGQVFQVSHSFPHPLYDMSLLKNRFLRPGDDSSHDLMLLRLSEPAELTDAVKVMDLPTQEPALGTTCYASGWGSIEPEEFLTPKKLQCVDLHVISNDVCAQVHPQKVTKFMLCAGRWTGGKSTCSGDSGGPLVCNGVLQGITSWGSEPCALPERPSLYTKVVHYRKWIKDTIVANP

Ki (aminopeptidase A): > 100 µM
Ki (FAP): > 100 µM
Ki (KLK7): > 100 µM
Ki (trypsin): > 100 µM
Ki (PSA): > 100 µM
Binder: CLHSPWC (disulfide 1-7) [cyc-LHSPW]
